Reference: patent publication US20230272073A1

Key:
[1] = target: membrane-bound IGHV3-21/IGLV3-21^R110 BCR on murine TKO cells (human); experiment: flow cytometry dot plot, cell mix A (1:1 IGHV3-21/IGLV3-21^R110 BCR TKO cells and BCR-negative TKO cells), 2 µg/ml anti-human IgM-PE
[2] = target: IGHV3-21/IGLV3-21^G110 BCR on murine TKO cells (human) (UniProt P01871); experiment: flow cytometry dot plot, cell mix B (1:1 IGHV3-21/IGLV3-21^G110 BCR TKO cells and BCR-negative TKO cells), 2 µg/ml anti-human IgM-PE
Sequence of IGHV3-21/IGLV3-21^G110 BCR on murine TKO cells (human) (P01871 other isoform, or with tags, fused parts or gaps, chain 1 of 2): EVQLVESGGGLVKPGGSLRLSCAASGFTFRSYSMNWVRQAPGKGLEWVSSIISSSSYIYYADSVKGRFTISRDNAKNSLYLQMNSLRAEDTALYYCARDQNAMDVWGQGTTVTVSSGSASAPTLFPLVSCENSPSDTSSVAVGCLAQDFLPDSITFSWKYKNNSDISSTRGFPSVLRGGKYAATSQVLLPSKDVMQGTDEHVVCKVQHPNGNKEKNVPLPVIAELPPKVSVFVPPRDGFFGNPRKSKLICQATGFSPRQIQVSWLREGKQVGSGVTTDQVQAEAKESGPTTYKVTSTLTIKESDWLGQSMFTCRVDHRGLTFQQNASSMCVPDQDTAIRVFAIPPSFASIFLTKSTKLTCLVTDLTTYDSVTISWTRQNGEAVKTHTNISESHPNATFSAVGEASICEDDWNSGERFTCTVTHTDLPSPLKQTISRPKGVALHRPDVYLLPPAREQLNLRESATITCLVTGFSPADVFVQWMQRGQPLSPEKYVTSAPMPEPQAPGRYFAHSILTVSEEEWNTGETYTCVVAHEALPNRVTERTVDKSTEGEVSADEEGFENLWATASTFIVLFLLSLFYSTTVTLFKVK
Sequence of IGHV3-21/IGLV3-21^G110 BCR on murine TKO cells (human) (light, as listed by the source, chain 2 of 2): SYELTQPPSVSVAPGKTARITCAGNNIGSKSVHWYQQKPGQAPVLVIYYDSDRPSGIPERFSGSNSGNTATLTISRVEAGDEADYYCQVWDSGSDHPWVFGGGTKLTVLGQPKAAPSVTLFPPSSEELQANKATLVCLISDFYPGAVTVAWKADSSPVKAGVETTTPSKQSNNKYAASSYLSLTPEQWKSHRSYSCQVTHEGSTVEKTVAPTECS

Sequence of membrane-bound IGHV3-21/IGLV3-21^R110 BCR on murine TKO cells (human) (P01871 other isoform, or with tags, fused parts or gaps, chain 1 of 2): as the sequence (P01871 other isoform, or with tags, fused parts or gaps, chain 1 of 2) above
Sequence of membrane-bound IGHV3-21/IGLV3-21^R110 BCR on murine TKO cells (human) (light, as listed by the source, chain 2 of 2): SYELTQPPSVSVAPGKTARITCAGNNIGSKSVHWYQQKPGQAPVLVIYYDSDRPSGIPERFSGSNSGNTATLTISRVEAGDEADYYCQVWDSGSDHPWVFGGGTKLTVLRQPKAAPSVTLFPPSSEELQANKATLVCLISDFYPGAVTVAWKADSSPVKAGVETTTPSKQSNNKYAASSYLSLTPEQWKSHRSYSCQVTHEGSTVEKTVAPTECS

share of gated cells (P1) in quadrant Q1 (anti-IgM-PE positive, mAb01-01-APC negative) [1]: 2.78%
share of gated cells (P1) in quadrant Q2 (anti-IgM-PE positive, mAb01-01-APC positive) [1]: 45.5%
share of gated cells (P1) in quadrant Q1 (anti-IgM-PE positive, mAb01-01-APC negative) [2]: 42.2%
share of gated cells (P1) in quadrant Q2 (anti-IgM-PE positive, mAb01-01-APC positive) [2]: 1.11%
Substance: Anti-human IgM-PE, Clone: MHM-88, BioLegend Cat-No.: 314508 (antibody)
